{
  "source": "patent US20060121535",
  "proteins": {"B1": {"name": "v-Abl tyrosine kinase (Calbiochem / EMD Biosciences) (protein)", "chain": "YITPVNSLEKHSWYHGPVSRNAAEYLLSSGINGSFLVRESESSPGQRSISLRYEGRVYHYRINTASDGKLYVSSESRFNTLAELVHHHSTVADGLITTLHYPAPKRNKPTIYGVSPNYDKWEMERTDITMKHKLGGGQYGEVYEGVWKKYSLTVAVKTLKEDTMEVEEFLKEAAVMKEIKHPNLVQLLGVCTREPPFYIITEFMTYGNLLDYLRECNRQEVSAVVLLYMATQISSAMEYLEKKNFIHRDLAARNCLVGENHLVKVADFGLSRLMTGDTYTAHAGAKFPIKWTAPESLAYNKFSIKSDVWAFGVLLWEIATYGMSPYPGIDLSQVYELLEKDYRMERPEGCPEKVYELMRACWQWNPSDRPSFAEIHQAFETMFQESSISD"}},
  "key": {"[1]": {"biological_target": "T1, GST-Crkl (intra SH3), P46109", "T1 chain": "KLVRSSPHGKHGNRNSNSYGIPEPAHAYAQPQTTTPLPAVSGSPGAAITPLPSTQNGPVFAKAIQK"}, "[2]": {"biological_target": "T2, Abl peptide NH2-EAIYAAPFAKKK-COOH (SEQ. ID. NO: 4), acrylic-labeled, photocleavable", "T2 chain": "EAIYAAPFAKKK"}, "[3]": {"biological_target": "GST-Crkl (full length), P46109", "sequence (P46109 whole entry)": "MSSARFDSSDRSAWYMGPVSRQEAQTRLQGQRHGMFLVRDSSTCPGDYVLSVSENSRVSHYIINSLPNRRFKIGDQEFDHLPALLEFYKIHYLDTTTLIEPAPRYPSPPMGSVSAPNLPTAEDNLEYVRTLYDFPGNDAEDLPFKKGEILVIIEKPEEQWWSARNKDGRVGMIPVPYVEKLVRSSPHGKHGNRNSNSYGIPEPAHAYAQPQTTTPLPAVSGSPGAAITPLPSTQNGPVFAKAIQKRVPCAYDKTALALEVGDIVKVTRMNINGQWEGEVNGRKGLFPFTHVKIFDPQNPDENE"}},
  "data": [
    {"protein": "B1", "values": [
      {"measurement": "tyrosine phosphorylation of bead-immobilized substrate, anti-phosphotyrosine Western blot", "setting": "[1]", "value": "v-Abl displays tyrosine kinase activity toward GST-Crkl (SH3) and GST-Crkl (intra SH3) in the absence of imatinib"},
      {"measurement": "tyrosine phosphorylation on protein array, ECL, 2 h reaction", "setting": "[1]", "value": "v-Abl demonstrates a slight preference for the GST-Crkl (SH3) substrate relative to the GST-Crkl (intra SH3) substrate"},
      {"measurement": "extent of phosphorylation of the immobilized peptide, MALDI mass spectrometry", "setting": "[2]", "value": "the extent of phosphorylation was estimated to be approximately 90%"},
      {"measurement": "tyrosine phosphorylation of bead-immobilized substrate, anti-phosphotyrosine Western blot", "setting": "[3]", "value": "GST-Crkl (full-length) is not phosphorylated by v-Abl"},
      {"measurement": "tyrosine phosphorylation of surface spots, ECL film (Example 9)", "setting": "[3]", "value": "Qualitative detection of phosphorylated tyrosine for the 833 and 1660 ng spots of the two larger forms of GST-Crkl can be seen"},
      {"measurement": "tyrosine phosphorylation on protein array, ECL", "setting": "[3]", "value": "Phosphorylation of GST-Crkl (full-length) is minimal (data not shown)"},
      {"measurement": "tyrosine phosphorylation of bead-immobilized substrate, anti-phosphotyrosine Western blot", "setting": "GST-Crkl (SH3), P46109", "value": "v-Abl displays tyrosine kinase activity toward GST-Crkl (SH3) and GST-Crkl (intra SH3) in the absence of imatinib"},
      {"measurement": "tyrosine phosphorylation of surface spots, ECL film (Example 9)", "setting": "GST-Crkl (SH3), P46109", "value": "Qualitative detection of phosphorylated tyrosine for the 833 and 1660 ng spots of the two larger forms of GST-Crkl can be seen"},
      {"measurement": "tyrosine phosphorylation on protein array, ECL, 2 h reaction", "setting": "GST-Crkl (SH3), P46109", "value": "v-Abl demonstrates a slight preference for the GST-Crkl (SH3) substrate relative to the GST-Crkl (intra SH3) substrate"}
    ]}
  ]
}
